This assay relates to eYFP under the control of the lactose operator (lacO). The assay can be described thus: in vivo dose-response curves of LacI variants to IPTG measured with flow cytometry (eYFP output), fit to the Hill equation. It is filed as cell-based, E. coli. Particulars: IPTG dose-response, Hill fit of cytometry data. On the procedure: Dose-response curves were measured with flow cytometry using E. coli MG1655Δlac transformed with variants of the pVER plasmid, described previously. The plasmid contained different variants of the lacI coding DNA sequence (CDS), as described in the text, and an expression cassette with enhanced yellow fluorescent protein (eYFP) under the control of the lactose operator (lacO). The lacI CDS was verified with Sanger sequencing for each variant.
All cultures were grown in a rich M9 media (3 g/L KH2PO4, 6.78 g/L Na2HPO4, 0.5 g/L NaCl, 1 g/L NH4Cl, 0.1 mmol/L CaCl2, 2 mmol/L MgSO4, 4% glycerol, and 20 g/L casamino acids) supplemented with 50 μg/mL kanamycin.
For flow cytometry measurements, E. coli cultures were grown in a laboratory automation system that included an automated liquid handler (Hamilton, STAR), an automated plate sealer (4titude, a4S), an automated de-sealer (Brooks, XPeel), and two multi-mode plate readers (BioTek, Neo2SM).
Cultures were grown in clear polystyrene 96-well plates with 1.1 mL square wells (4titude, 4ti-0255). The culture volume per well was 0.5 mL. Before incubation, each 96-well growth plate was sealed by the automated plate sealer with a gas permeable membrane (4titude, 4ti-0598). Growth plates were incubated in one of the multi-mode plate readers at 37°C with a 1°C gradient applied from the bottom to the top of the incubation chamber to minimize condensation on the inside of the membrane. The plate readers were set for double-orbital shaking at 807 cycles per minute. Optical density at 600 nm (OD600) was measured every 5 minutes during incubation, with continuous shaking applied between measurements (optical density at 700 nm and YFP fluorescence were also measured every 5 minutes). After incubation, the automated de-sealer was used to remove the gas-permeable membrane from each 96-well plate to enable automated passaging of cultures and sample preparation for flow cytometry measurements.
For each measurement, starter cultures were prepared from glycerol freezer stock in 5 mL of rich M9 media in a 14 mL snap-cap culture tubes. Starter cultures were incubated at 37°C with orbital shaking at 300 rpm for between 4 h and 24 h prior to loading the automation system. The automation system then prepared 96-well growth plates, sealed and de-sealed the growth plates, incubated the growth plates, and prepared flow cytometry sample plates. The automated culture protocol consisted of the following steps: […]

Where a chain is given by its changes, count along the chain named. In names and notes the source's numbering stands.

B1: pVER-IPTG-WT(L56M/A194V): LacI variant: L56M A194V (protein, UniProt P03023 1-360, looked up, variant L56M A194V)
Lactose operon repressor: MKPVTLYDVAEYAGVSYQTVSRVVNQASHVSAKTREKVEAAMAELNYIPNRVAQQMAGKQSLLIGVATSSLALHAPSQIVAAIKSRADQLGASVVVSMVERSGVEACKAAVHNLLAQRVSGLIINYPLDDQDAIAVEAACTNVPALFLDVSDQTPINSIIFSHEDGTRLGVEHLVALGHQQIALLAGPLSSVSVRLRLAGWHKYLTRNQIQPIAEREGDWSAMSGFQQTMQMLNEGIVPTAMLVANDQMALGAMRAITESGLRVGADISVVGYDDTEDSSCYIPPLTTIKQDFRLLGQTSVDRLLQLSQGQAVKGNQLLPVSLVKRKTTLAPNTQTASPRALADSLMQLARQVSRLESGQ
As to B1, the “n: the Hill coefficient” value is 1.42.

B2: pVER-IPTG-WT(L56M/D130E): LacI variant: L56M D130E (protein, UniProt P03023 1-360, looked up, variant L56M D130E)
Lactose operon repressor: B1 Lactose operon repressor with D130E, V194A
Turning to B2, the “n: the Hill coefficient” value was found to be 1.42.
